The target in assay [1] is T1, hCD98 ECD-His6-Avi (human, UniProt P08195 105-529, biotinylated by BirA ligase on the Avi tag (form used in ELISA)).
T1 construct: also called hCD98 ECD-His6-Avi-Biotin; not shown: His6-Avi tag
T1 sequence: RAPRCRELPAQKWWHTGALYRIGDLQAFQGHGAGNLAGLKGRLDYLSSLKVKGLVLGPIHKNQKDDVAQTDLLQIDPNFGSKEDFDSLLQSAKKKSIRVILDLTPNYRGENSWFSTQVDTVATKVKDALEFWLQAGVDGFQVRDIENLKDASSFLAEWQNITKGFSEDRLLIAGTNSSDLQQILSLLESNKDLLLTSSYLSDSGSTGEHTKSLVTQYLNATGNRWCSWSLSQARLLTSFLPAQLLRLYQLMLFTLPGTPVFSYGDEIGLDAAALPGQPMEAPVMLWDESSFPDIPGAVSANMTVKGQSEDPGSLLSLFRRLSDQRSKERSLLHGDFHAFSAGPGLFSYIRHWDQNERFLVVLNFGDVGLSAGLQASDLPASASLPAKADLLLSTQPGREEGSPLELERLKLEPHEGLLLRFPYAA
Description: ELISA at pH 6.5, biotinylated hCD98 ECD captured on streptavidin; pH 6.5.

Assay [2] addresses T1, hCD98 ECD-His6-Avi. Description: ELISA at pH 7.4, biotinylated hCD98 ECD captured on streptavidin; pH 7.4. (An ELISA detects its analyte on a solid surface through an enzyme-linked reagent.)
Description: For the ELISA-based analysis of antibody binding with antigen, biotinylated protein antigens were captured with streptavidin (Sigma-Aldrich) coated 96-well plates (Nunc, MaxiSorp™). Then, serially diluted antibodies were added, and detected by adding an HRP-labeled goat polyclonal anti-Human IgG Fc (Thermo Fisher Scientific).
In the next assay the target is T2, HEK293T-mCD98 (Mus musculus, UniProt P10852).
T2 construct: full length, on cells or tissue; Cell-surface counterpart of m7 (the soluble mCD98 ECD), as m5 is of m4; also called mouse CD98 (mCD98) on cells; CD98 of C57BL/6 kidney and leukocytes
T2 sequence (CD98 heavy chain, looked up): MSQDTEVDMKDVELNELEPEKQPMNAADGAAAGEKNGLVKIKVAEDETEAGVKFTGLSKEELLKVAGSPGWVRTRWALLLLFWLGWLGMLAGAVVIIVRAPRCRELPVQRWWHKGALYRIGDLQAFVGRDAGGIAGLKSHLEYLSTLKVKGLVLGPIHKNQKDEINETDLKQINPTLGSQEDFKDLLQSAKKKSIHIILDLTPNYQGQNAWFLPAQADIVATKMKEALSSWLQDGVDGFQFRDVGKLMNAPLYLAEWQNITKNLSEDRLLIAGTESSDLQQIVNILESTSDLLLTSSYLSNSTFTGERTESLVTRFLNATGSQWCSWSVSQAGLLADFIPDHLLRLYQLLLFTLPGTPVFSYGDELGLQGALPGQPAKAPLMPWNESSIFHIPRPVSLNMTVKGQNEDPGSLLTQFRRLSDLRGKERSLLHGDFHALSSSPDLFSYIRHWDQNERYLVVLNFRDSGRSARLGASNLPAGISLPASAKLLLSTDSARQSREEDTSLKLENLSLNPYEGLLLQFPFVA
Kind of assay: FACS on leukocytes of C57BL/6 mice, FITC anti-human IgG secondary.

The target of the next assay is T3, mouse CD98 (mCD98) ECD (mouse, UniProt P10852 100-526).
T3 construct: extracellular domain; By the methods the CD98 ECDs were His6-Avi-tagged; also called murine CD98
T3 sequence (looked up): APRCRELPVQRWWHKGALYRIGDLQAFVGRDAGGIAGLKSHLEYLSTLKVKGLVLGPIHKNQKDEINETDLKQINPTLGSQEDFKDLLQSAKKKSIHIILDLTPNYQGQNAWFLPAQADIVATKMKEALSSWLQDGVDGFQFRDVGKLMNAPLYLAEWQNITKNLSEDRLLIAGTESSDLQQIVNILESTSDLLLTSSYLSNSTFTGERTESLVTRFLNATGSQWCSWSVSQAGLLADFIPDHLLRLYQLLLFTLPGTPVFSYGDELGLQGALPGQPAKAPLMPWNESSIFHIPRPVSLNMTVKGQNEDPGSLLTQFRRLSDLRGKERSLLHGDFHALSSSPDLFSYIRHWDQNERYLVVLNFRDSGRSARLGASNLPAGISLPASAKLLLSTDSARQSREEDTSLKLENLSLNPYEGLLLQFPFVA
Kind of assay: SPR (Biacore T200), antibody captured, CD98 ECD as analyte; table cells 'n.m.'. In general terms: SPR reads the build-up and loss of mass on a sensor chip optically.

Assay [3] concerns the target T1, hCD98 ECD-His6-Avi. Kind of assay: SPR (Biacore T200), antibody captured, CD98 ECD as analyte, 1:1 Langmuir model.
Description: (§1) Kinetic analysis of the bindings of anti-CD98 antibodies to the ECD of CD98, and the ECD of FcγRs were performed on a Biacore T200 instrument (Biacore, GE Healthcare). Anti-hFc Ab or protein A/G (Thermo Fisher Scientific) was covalently attached to the surface of a CM5 sensor chip using an amine coupling kit (GE Healthcare). Antibodies at optimal concentrations were captured on the chip and the analytes (CD98 or FcγRs) were then injected at 2-fold serial diluted concentrations. Binding kinetics were evaluated using a 1:1 Langmuir binding model. The ka, kd, and KD values were calculated using Biacore T200 evaluation software.

Description for mouse CD98 (mCD98) ECD: as §1

B1: S1-F4 (antibody, V domains shown)
VH: QVQLVQSGAEVKKPGASVKVSCKASGYTFTSYYMHWVRQAPGQGLEWMGIINPSGGSTSYAQKFQGRVTMTRDTSTSTVYMELSSLRSEDTAVYYCARGYYDILTGSRPIFFDIWGQGTMVTVSS
VL: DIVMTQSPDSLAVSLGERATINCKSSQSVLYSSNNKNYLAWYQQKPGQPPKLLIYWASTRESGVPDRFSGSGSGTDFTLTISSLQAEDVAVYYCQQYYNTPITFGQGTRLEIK
notes: Obtained by VH chain shuffling of HN2-G9; also called anti-hCD98 antibody S1-F4
For B1, the values for the concentration for a half-maximal effect (EC50) with hCD98 ECD-His6-Avi [1] and with hCD98 ECD-His6-Avi [2] were 0.059 nM and 0.046 nM, respectively. In addition, the binding result with HEK293T-mCD98 is given as “no binding (tested: 10 µg/ml)”; with mouse CD98 (mCD98) ECD, “no binding”. The Kd (in general, the constant that tells how readily two partners part at equilibrium) with hCD98 ECD-His6-Avi [3] is 58.2 nM. For the same molecule, the koff – broadly, the rate constant with which the complex falls apart – with hCD98 ECD-His6-Avi [3] is 0.0576 s⁻¹. Further, in the assay with hCD98 ECD-His6-Avi [3], the kon (commonly the rate constant with which the complex forms) turned out to be 990000 M⁻¹ s⁻¹.

For the origin of these results see patent publication US20250084177A1 (HUAHUI HEALTH, published 2025).
